Laboratory results: the nanobody polyreactivity screen of Harvey et al. (2022)

Assay: yeast display, Sf9 membrane polyspecificity reagent, FACS + sequencing; frameworks hold sequencing errors
How it was run: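 Genes from sorted yeast were amplified by colony PCR, read by MiSeq 2 × 250 sequencing and filtered on CDR length. These cells carried a synthetic nanobody library in Saccharomyces cerevisiae BJ5465 and were sorted by FACS into low and high (top ~1%) gates on anti-HA and streptavidin fluorescence. Polyreactivity is labelled according to the gate of origin.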

Row | Sequence | polyreactivity (PSR sort gate)
1 | QVKLVESGGGLVQAGGSLRLSCAASGFTYSANTMGWSRQAPGKERELVAAITRGGRPYYADSVKGRFTISRDNAKNTVYFQMNSLKPEDTAVYYCAKRATWYTVPREGYWGQGTQVTVSS | high polyreactivity
2 | QVKLVESGGGLVQAGGSLRLSCAASGGTFQPNARGWNRQAPGKERELVAAISWSDGSTYYADSVKGRFTISRDNAKNTVYLQMNSLKPEDTAVYYCAADFTYYDSPYRDYNYESWGQGTQVTVSS | low polyreactivity
3 | QVKLVESGGGLVQAGGSLRLSCAASGIIFQYYAMGWYRQAPGKESELVAAISWSGGSTYYADSVKGRFTISRDNAKNTVYLQMNSLKPEDTAVYYCAARSRSYWPYEGYYWGQGTQVTVSS | low polyreactivity
4 | QVKLVESGGGLVQAGGSLRLSCAASGIIFYRYAMGWYRQAPGKERELVAAISGRTGRTYYADSVKGRFTISRDNAKNTVYLQMNSLKPEDTAVYYCAADYYHYRYQTRLDYWGQGTQVTVSS | high polyreactivity
5 | QVKLVESGGGLVQAGGSLRLSCAASGITIRFNAMGWYRQAPGKERELVPAITSSGGRTYYADSVKVRFTISRDNAKNTVYLQMNSLKPEDTAVYYCAAYYRYSTTEDRSVYRGYYYWGQGTQVTVSS | high polyreactivity
6 | QVKLVESGGGLVQAGGSLRLSCAASGLIFQNYAMVWYRQAPGKERELVAAISRRGGRTNYADSVKGRFTISRDNAKNNVYLQMKSLKPEDTAVYYCNAKARQSYYYRFDYWGQGTQVTVSS | high polyreactivity
7 | QVKLVESGGGLVQAGGSLRLSCAASGLTLQWYALGWYRQAHGKERDLVAAISYNGGDTYYADSVKGRFTISRDNAKNTVYLQMNSLKPEDTAVYYCAAYWYVGVNYSQRRDYWGQGTQVTVSS | low polyreactivity
8 | QVKLVESGGGLVQAGGSLRLSCAASGNTFGGYAMGWYRQAPGKERELVAAISSSGGSTYYADSVKGRFTISRDNAKNTVYLQMNSLKPEDTAVYYCAAYGGFYGYWTMGYWGQGTQVTVSS | high polyreactivity
9 | QVKLVESGGGLVQAGGSLRLSCAASGRIFGYNAMGWYRQAPGKERELVAAISRSGGTTYYADSVKGRFTISRDNSKNTVNLQMNRLKPEDTEVYYCAAYYRTRVPYDMDYWGQGTQVTVSS | high polyreactivity
10 | QVKLVESGGGLVQAGGSLRLSCAASGRIFQPYAMGWYRQAPGKERELVADITYRDGSTYFADSVKGRFTISRDNAKNTVYLQMNSLKPEDTAVYYCNADGEYAKDDWFHWYDYWGQGTQVTVSS | high polyreactivity
11 | QVKLVESGGGLVQAGGSLRLSCAASGRIFSGYAMGWYIQAPGKESEFVAAITWNGVSTYYADSVKVRFTISRDNAKNTVYLLMNSLKPEDTAVYYCAKDYVYYPSYRGSVNYWGQGTQVTVSS | low polyreactivity
12 | QVKLVESGGGLVQAGGSLRLSCAASGRTFGYNAMGWYRQAPGKERELVASINWSGGRTYYADSVKGRFTISRDNAKNTVYLQMYSLKPEDTAVYYCAKGFTRVQQQYQYLFGYWGQGTQVTVSS | low polyreactivity
13 | QVKLVESGGGLVQAGGSLRLSCAASGRTFINYAMGWYRQAPGKERELVAAITTGGRTNYADSVKGRFTISRDNSKNTVYLQMNSLKPEDTEVYYCAADRYDWGRNTLNYWGQGTQVTVSS | low polyreactivity
14 | QVKLVESGGGLVQAGGSLRLSCAASGRTFYINAMGWYRQAPGKERELVAAISRVGSTNYADSVKGRFTISRDNAKNTVYLQMNSLKPEDTEVYYCAARSRGGRRYYYWGQGSQVTVSS | high polyreactivity
15 | QVKLVESGGGLVQAGGSLRLSCAASGSTFYQNAMGWYRQAQGKEREFVAAISGSGDRTNYADSVKARFTISRDNAKNTVYLQMNSLKPEDTAVYFCAARGQPGRRTSSGFFSGGYCGQGTQVTVSS | high polyreactivity
16 | QVKLVESGGGLVQAGGSLRLSCAASVRIFALNTMGWYREAPGKERELDAAISYRGGSTYYADSVKGRFTISRDNAKTTVYLQMNSLKPEDTAVYYCAARCYSYSRRYGYDYWGQGTQVTVSS | high polyreactivity

Row | Sequence | polyreactivity (PSR sort gate)
17 | QVKLVESGGGLVQAGGSLRLSCADSGLIFYKYAMGWYRKAPGKERELVAAITSGGSTNYADSVKGRFTISRDNAKNTVYLQMNSLKPEDTAVYYCNADYNHYLVVRWWYPPVDYWGQGTQVTVSS | low polyreactivity
18 | QVKLVESGGGLVQAGGSLRLSFAASAGTFNSYAKGWYRQEPGKERELVATISYSGGSTYYADSVKGRFTISRDNAKYTVYLQMNSLKPEDTAVYYCAKVRYYPYSPGGLDYWGQGTQVTVSS | low polyreactivity
19 | QVKLVESGGGLVQAGGSLRLTCAASGSTFGPYAMGWYRQEPGKERELVSTITRNGGSTYYADSVKGRFTISRDNAKNTVYLQMNSLKPEDTAVYYCNAEGRWSSFTQRMDYWGQGTQVTVSS | low polyreactivity
20 | QVKLVESGGGLVQAGGSLSLSFAYSGITFYGNAMGWYRQAAGTERELVAAITGGGGTNYADSLKGRFTISRDNEKNTVYLQMNSLKPEDTAVYYCNRDYFVWFQRGQYKRGSSWYDYWGQGTQVTVSS | low polyreactivity
21 | QVKLVESGGGLVQAGRSLRLICAASGFTFHYNSMGWYRQAPGKEREFVAAISGSGDRTYYADSGKGRFTISRDNAKNTVYLQMNSLKPEDTAVYYCATSVRQNYFYSYDYWGQGTQVTVSS | high polyreactivity
22 | QVKLVESGGGLVQAGRSLRLSCAASGFTFSANTMGWYRQAPGKERELVAAITRGGRTYYADSVKGRFTISRDNAKNTVYLQMNSLKPEDTAVYYCAKRATWYTVTREGYWGQGTQVTVTS | high polyreactivity
23 | QVKLVESGGGLVQAGVSLRLSCAASGRIFVFYAMGWYRQAPGKERELVAAITASSTRTYYADSVKGRFTISRAHAKNTVYLQMNSLKPEDTAVYYCARDIRQYILYGRGDYWGQGTQVTVSS | low polyreactivity
24 | QVKLVESGGGLVQSGGSLRLSCAAYGRIFATNAMGWYRPAPGKERELVATITRSAGRTYYADSVKGRFTISRVKAKHSVYLQMNRLKPEDTAVFYFAASYWDTGPGYREYDYWGEGTQVTVSS | low polyreactivity
25 | QVKLVESGRGLVQAGGSLRLSCAASGRIFTNNAMGRYRPATGKERELVAAINVSGGRTYYADSVKGRFTISRENAKNTVYLQMISLKPDDTAVYYCNKVKETYMDYWGQGTQVTVSS | high polyreactivity
26 | QVKLVETGGGLVQAGGSLRLSCAASGSTFEHYAMGWYRQAPGKERELVAAISYTGGNTYYAYSVKGRFTISRDNAKNTVYLQMNSLKPEDTAVYYCAAAPLYYHRRGYYYWGQGTQVTVSS | high polyreactivity
27 | QVKVVESGGGLVQAGGSLRLSCAASGSIYVGYAMGWYRQAPGKERELVAAISWSGDSTYYADSVKGRFTISRDNAKNTVYLQMNSLKPEDTAVYYCAVDYAEIGPRREFEYDYWGQGTQVTVSS | low polyreactivity
28 | QVLLQESGGGLVQAGGSLRLGCAASGTISPAYYMGRYHQAPGKEREFVAAITYGTNTYYADSVKGRFTISRDNAKNNVYLQMNSLKPEDTAVYYCSASAGYNGAHDYWGQGTQVTVSS | low polyreactivity
29 | QVLLQESGGGLVQAGGSLRLSCAARGNIFSAGGMGWYSQAPVNVRELVAGIGTGTSTNYADSVKGRFTISRDNAKNTVYLQMNSLKPEDTAVYYCASGYYSGLSHWFWGQGTQVTVSS | low polyreactivity
30 | QVLLQESGGGLVQAGGSLRLSCAASGTISTDIRMGWYRLAPGKEREFVASIDGCSTTYYADSVKGRFTISRDNAKNTVFLQMNSLKPEDTAMYYCAAREATEFYLYYWGQGTQVTVSS | low polyreactivity
31 | QVLLQESGGGLVQAGGSLRLSCEAIGNIFSAGGMGWYRQAPVNERELVAGIGTGTSTNYAESVKGRFTISRDNAKNTVYLQMNSLNPEDTAVYYCAAAYYSGLSHWYWGQGTQVTVSS | low polyreactivity
